The values below come from patent US8784821 (Amgen, dated 2014).

The target in assay [1] is T1, human CD3 complex, native, on CD3-positive human T cells (human, UniProt P07766 23-207; P09693 23-182; P04234 22-171).
T1 construct: whole, on cells; Presented as part of the TCR/CD3 complex on Jurkat cells (flow cytometry) and on the CD4-positive T cell clone CB15 (cytotoxicity assays); also called CD3 on Jurkat cells; CD3+ Jurkat cells
In words: conclusion from ELISA (FIGS. 14 and 15) and flow cytometry on Jurkat cells. On the technique in general: An ELISA detects its analyte on a solid surface through an enzyme-linked reagent.
Target sequence in this assay (P07766 23-207, chain 1 of 3): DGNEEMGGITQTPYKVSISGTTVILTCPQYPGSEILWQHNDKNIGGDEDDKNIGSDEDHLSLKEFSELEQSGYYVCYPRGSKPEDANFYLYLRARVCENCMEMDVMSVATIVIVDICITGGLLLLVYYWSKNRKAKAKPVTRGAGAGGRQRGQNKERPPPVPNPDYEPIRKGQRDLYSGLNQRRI
Target sequence in this assay (P09693 23-182, chain 2 of 3): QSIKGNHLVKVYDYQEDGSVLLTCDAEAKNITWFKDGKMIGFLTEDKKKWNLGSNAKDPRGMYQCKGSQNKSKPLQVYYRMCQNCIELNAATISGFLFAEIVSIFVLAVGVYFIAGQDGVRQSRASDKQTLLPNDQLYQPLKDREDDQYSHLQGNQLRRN
Target sequence in this assay (P04234 22-171, chain 3 of 3): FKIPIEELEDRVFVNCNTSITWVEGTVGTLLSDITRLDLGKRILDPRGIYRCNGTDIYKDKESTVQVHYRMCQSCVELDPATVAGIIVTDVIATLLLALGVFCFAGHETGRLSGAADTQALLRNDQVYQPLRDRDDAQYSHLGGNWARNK

A further assay deals with T2, BSA (blocking agent) (UniProt P02769 25-607).
T2 construct: Specificity control of the ELISA
T2 sequence (P02769 25-607 limits assumed): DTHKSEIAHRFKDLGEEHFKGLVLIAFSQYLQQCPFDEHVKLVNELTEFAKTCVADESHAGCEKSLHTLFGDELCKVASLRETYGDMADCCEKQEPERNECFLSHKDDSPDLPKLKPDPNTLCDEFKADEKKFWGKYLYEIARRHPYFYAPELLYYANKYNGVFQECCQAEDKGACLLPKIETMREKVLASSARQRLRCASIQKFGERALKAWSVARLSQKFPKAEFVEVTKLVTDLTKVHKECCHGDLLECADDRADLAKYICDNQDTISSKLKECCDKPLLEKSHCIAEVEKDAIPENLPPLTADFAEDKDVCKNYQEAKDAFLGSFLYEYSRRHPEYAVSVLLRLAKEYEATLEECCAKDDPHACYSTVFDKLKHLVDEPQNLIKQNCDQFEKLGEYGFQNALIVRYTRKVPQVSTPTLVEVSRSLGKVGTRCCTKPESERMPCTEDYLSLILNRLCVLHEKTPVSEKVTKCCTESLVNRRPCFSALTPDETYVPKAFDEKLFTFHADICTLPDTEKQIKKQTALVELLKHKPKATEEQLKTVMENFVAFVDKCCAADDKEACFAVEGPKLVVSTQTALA
In words: ELISA on uncoated plates blocked with PBS 3% BSA, periplasmic preparation. How it is done:
(§1) FIG. 15: ELISA-analysis of periplasmic preparations containing Flag-tagged scFv protein fragments from selected clones. […] Detection was performed by a monoclonal anti-Flag antibody followed by a peroxidase-conjugated polyclonal goat anti-mouse antibody. The ELISA was developed by an ABTS-substrate solution as described in example 3. The OD-values (Y-axis) were measured at 405 nm by an ELISA-reader. Clone numbers are presented on the X-axis, where the first number of the clone number indicates the round of panning in which the respective clone was obtained, while the second number indicates the respective clone of this round. Periplasmic preparation from cells producing the anti-CD3 scFv L2K was included, as well as the purified anti-CD3 antibodies UCHT1, SP34 and OKT3 (concentration of each 1 µg/ml).
(§2) ELISA experiments were carried out by coating the recombinant CD3 epsilon on wells of 96 well plastic plates (Nunc, maxisorb) typically at 4° C. over night. […] After removal of the blocking solution, PPPs and control solutions were added to the wells and incubated for typically one hour at room temperature. The wells were then washed three times with PBS/0.05% Tween 20. Detection of scFvs and control antibodies bound to immobilized antigen was Carried out using a monoclonal murine anti-His6 or anti FLAG-tag antibody (Qiagen anti-PentaHis and M2 anti Flag Sigma, typically each at a final concentration of 1 µg/ml PBS) detected with a peroxidase-labeled polyclonal goat anti- (mouse Fab-fragment) antibody (Dianova, 1 µg/ml PBS). The signal was developed by adding ABTS substrate solution and measured at a wavelength of 405 nm. Unspecific binding of the test-samples to the blocking agent was examined by carrying out the identical assays with the identical reagents and identical timing on ELISA plates which were not coated but blocked with BSA, only.

The target of assay [2] is T3, recombinant soluble extracellular domain of the human CD3 epsilon chain with His6 tag, expressed alone (human).
T3 construct: also called recombinant CD3-epsilon antigen; rCD3-epsilon
T3 chain: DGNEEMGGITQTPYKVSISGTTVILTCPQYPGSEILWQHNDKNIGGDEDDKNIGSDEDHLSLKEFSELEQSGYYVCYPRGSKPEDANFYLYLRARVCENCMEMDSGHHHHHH
In words: ELISA on coated recombinant CD3-epsilon, periplasmic preparation, anti-Flag detection. How it is done:
as §1, with “14: CD3-specific” for “15:”, “Example” for “example”
as §2

The target of assay [3] is T1, human CD3 complex, native, on …. In words: flow cytometry screening on Jurkat cells, periplasmic preparation. On the procedure:
Periplasmic preparations of soluble scFv protein fragments were added to CD3-positive Jurkat cells. Detection was performed by a 1.0 monoclonal anti-Flag antibody followed by a PE-labeled polyclonal anti-mouse antibody. ScFvs binding to cells was measured by an increase in fluorescence intensity as compared to cells that were incubated with PBS alone: Fluorescence intensity is blotted on the X-axis, the number of events is blotted on the Y-axis. The negative control is shown in black, the respective scFvs are shown in gray. Shifting to the right indicates positive binding to the cells. Periplasmic preparation from cells producing the anti-CD3 scFv L2K was included, as well as the purified anti-CD3 antibodies UCHT1, SP34 and OKT3 (concentration of each 5 µg/ml).
Target sequence in this assay (P09693 23-182, chain 2 of 2): as the sequence (P09693 23-182, chain 2 of 3) above
Target sequence in this assay (P04234 22-171, chain 3 of 2): as the sequence (P04234 22-171, chain 3 of 3) above
On the technique in general: Flow cytometry measures light scatter and fluorescence of single cells or particles in a stream.

B1: human anti-human CD3 scFv 3-114 (FLAG-tagged) (scFv)
scFv: ELQLVESGGGLVKPGRSLRLSCTASGFTFGDYAMSWFRQAPGKGLEWVGFIRSKAYGGTTEYAASVKGRFTISRDDSKSIAYLQMNSLKTEDTAVYYCTPQLWLLQDAFDIWGQGTMVTVSSGGGGSGGGGSGGGGSELQMTQSPSSLSASVGDRVTITCRASQGISNYLAWYQQKPGKVPKLLIYAASTLQSGVPSRFSGSGSGTDFTLTISSLQPEDFATYYCQQSYSTPPTFGQGTKLEIKTGDYKDDDDK
notes: VH-(G4S1)3-VL scFv from huLIB-ST, tested as crude periplasmic preparation
Regarding B1, the binding result is recorded as “binds” in assay [1], “no binding” with BSA (blocking agent) and “binds” in assay [2].

B2: human anti-human CD3 scFv 4-48 (FLAG-tagged) (scFv)
scFv: ELQLVESGPVLVKPTDTLTLTCTVSGFSLNNPRMGVSWIRQPPGKTLEWLAHIFPSDAKAHSASLKSRLTISKDTSKSQVVPTMTNMDPVDTATYYCARILGEYYPPAWFDPWGQGTLVTVSSGGGGSGGGGSGGGGSELVMTQSPDSLAVSLGERATINCKSSQSVLYSSNNKNYLAWYQQKPGQPPKLLIYWASTRESGVPDRFSGSGSGTDFTLTISSLQAEDVAVYYCQQYLKIPYTFGQGTKVEIKTGDYKDDDDK
notes: VH-(G4S1)3-VL scFv from huLIB-STE, tested as crude periplasmic preparation; also called clone 4-48
In the case of B2, the results for the binding result (in assay [3]; with BSA (blocking agent); in assay [2]) were “binds”, “no binding” and “binds”, respectively.

B3: human anti-human CD3 scFv 3-271 (FLAG-tagged) (scFv)
scFv: ELQLVEWGAGLLKPSETLSLTCAVYGGSFSGYYWSWIRQPPGKGLEWIGEINHSGSTNYNPSLKSRVTISVDTSKNQFSLKLSSVTAADTAVYYCARGPDRMGHGFDIWGQGTMVTVSSGGGGSGGGGSGGGGSELQMTQSPSSLSASVGDRVTITCRASQSISSYLNWYQQKSGKAPKLLIYAASSLQSGVPSRFSGSGSGTDFTLTISSLQPEDFATYYCQQSYSSPWTFGQGTKVEIKTGDYKDDDDK
notes: VH-(G4S1)3-VL scFv from huLIB-STE, tested as crude periplasmic preparation
Consider B3, for which, in the assay with BSA (blocking agent), the binding result is “no binding”.

B4: human anti-human CD3 scFv 3-148 (FLAG-tagged) (scFv)
scFv: ELQLVESGPGLVKPSGTLSLTCAVSGGSISSRNWWSWVRQPPGKGLEWIGDIYHSGSTNYNPSLKSRVTISVDKSKNQFSLKLSSVTAADTAVYYCASGYTSCRDAFDIWGQGTMVTVSSGGGGSGGGGSGGGGSELVMTQSPSSLSASVGDRVTITCRASQGIGNYLAWYQQKPGQPPKMLIYWASIRESGVPDRFSGSGSGTDFTLTISSLQAEDVAVYYCQQYYSNPQTFGQGTKVEIKTGDYKDDDDK
notes: as for B1
Regarding B4, the binding result is listed as “binds” in assay [1], “no binding” with BSA (blocking agent) and “binds” in assay [2].

B5: human anti-human CD3 scFv 3-106 (FLAG-tagged) (scFv)
scFv: ELQLVESGGGVVQPGRSLRLSCAASGFTFSSYGMHWVRQAPGKGLEWVAVISYDGSNKYYADSVKGRFTISRDNSKNTLYLQMNSLRSEDTAVYYCARLSPYCTNGVCWDAFDIWGQGTMVTVSSGGGGSGGGGSGGGGSELQMTQSPSSLSASVGDRVSITCRASQTISNYLNWYQLKPGKAPKLLIYAASTLQSEVPTRFSGSGSGTDFTLTISGLHPEDFATYYCQQFNSYPRTFGQGTKVEIKTGDYKDDDDK
notes: as for B1
As to B5, the binding result is “binds” in assay [1], “no binding” with BSA (blocking agent) and “binds” in assay [2].

B6: human anti-human CD3 scFv 3-550 (FLAG-tagged) (scFv)
scFv: ELQLVESGPGLVKPSQTLSLTCAISGDSVSSNSAAWNWIRQSPSRGLEWLGRTYYRSKWYNDYAVSVKSRITINPDTSKNQFSLQLNSVTPEDTAVYYCARDRRRIAARQYYGMDVWGQGTTVTVSSGGGGSGGGGSGGGGSELVLTQSPGTLSLSPGERATLSCRASQSVSSNYLAWYQQKPGQAPRLLIYGASSRATGIPDRFSGSGSGTDFTLTISSLQPEDVATYYCQKYNSAPLTFGGGTKVEIKTGDYKDDDDK
notes: as for B3
Take B6: the binding result in assay [3] is on record as “binds”; in the assay with BSA (blocking agent) it was “no binding”; in assay [2], “binds”.

B7: human anti-human CD3 scFv 4-10 (FLAG-tagged) (scFv)
scFv: ELQLVESGGGLVQPGGSLRLSCAASGFTFSSYAMGWVRQAPGKGLEWVSAVSGSGGSTYYADSVKGRFTISRDNSKNTLYLQMNSLRAEDTAVYYCAKAKFLGHYYGMDVWGQGTTVTVSSGGGGSGGGGSGGGGSELQMTQSPSSLSASVGDRVTITCRASQSISSYLNWYQQKPGKAPKLLIYAASSLQSGVPSRFSGSGSGTEFTLTISSLQPEDFATYYCLQHNAYPYTFGQGTKVEIKTGDYKDDDDK
notes: VH-(G4S1)3-VL scFv from huLIB-ST, tested as crude periplasmic preparation; Flag-tag put at the C-terminus because it replaces the vector's His6-tag; also called construct 4-10
On to B7, for which the values for the binding result (in assay [1]; in the assay with BSA (blocking agent); in assay [2]) were “binds”, “no binding” and “binds”, respectively.

B8: human anti-human CD3 scFv 3-190 (FLAG-tagged) (scFv)
scFv: ELQLVEWGAGLLKPSETLSLTCAVYGGSFSGYYWSWIRQPPGKGLEWIGEINHSGSTNYNPSLKSRVTISVDTSKNQFSLKLSSVTAADTAVYYCARGRGRFLGWLLGGSNWFDPWGQGTLVTVSSGGGGSGGGGSGGGGSELVMTQSPSSLSASVGDRVTITCRASQGISNYLNWYQQKPGKAPKLLIYDASNLETGVPSRFSGSGSGTDFTLTISSLQPEDFATYYCQQSYSTPYTFGQGTKVDIKTGDYKDDDDK
notes: as for B3
On to B8, for which the values for the binding result (in assay [3]; in the assay with BSA (blocking agent); in assay [2]) were “binds”, “no binding” and “binds”, respectively.
